The target in this assay is Arp2/3 complex (human, UniProt P61158 1-418; P61160 1-394; O15143 1-372). Briefly: SPR; Biacore 8K, 25°C, PBS with 0.05% Tween-20; Arp2/3 immobilised on CM5 chip; analytes injected at 30 μL/min, 60 s association, 60 s dissociation; Arpin^FM 3.125-200 μM, ArpinCT, GST-aCT and D-aCT 0.625-40 μM, AI-designed variants 0.156-10 μM. The note with it: both partners purified.

No end group written: not given here.

In paper doi:10.1101/2025.06.24.661301, “Homodimerized Arpins: Binding to Arp2/3 Complexes with Positive Synergy to Inhibit Lamellipodia-Dependent Tumor Metastasis” (bioRxiv, 2025) one finds Kd data, which are given here for one molecule.

B1: D-aCT (dual-tailed peptide of two Arpin CTs linked at their N-termini by BM(PEG)3) (peptide)
chain: CSSGGSSGGSSGGSSGGGASWTDNIMAQKSSKGAAAEIREQGDGAEDEEWDD
modifications: not fully specified (residue 1); also: dimer: N-terminal Cys linked to N-terminal Cys of second chain by BM(PEG)3
As a reminder, the Kd is the equilibrium constant for the complex coming apart. B1 showed a Kd of 5.5 µM. In other words, the single-digit micromolar range.
